Experimental data taken from PMC8247761, “BZR1 Regulates Brassinosteroid-Mediated Activation of AMT1;2 in Rice”.

T1: His:BZR1 (Oryza sativa (rice), UniProt Q7XI96 1-298)
T1 sequence: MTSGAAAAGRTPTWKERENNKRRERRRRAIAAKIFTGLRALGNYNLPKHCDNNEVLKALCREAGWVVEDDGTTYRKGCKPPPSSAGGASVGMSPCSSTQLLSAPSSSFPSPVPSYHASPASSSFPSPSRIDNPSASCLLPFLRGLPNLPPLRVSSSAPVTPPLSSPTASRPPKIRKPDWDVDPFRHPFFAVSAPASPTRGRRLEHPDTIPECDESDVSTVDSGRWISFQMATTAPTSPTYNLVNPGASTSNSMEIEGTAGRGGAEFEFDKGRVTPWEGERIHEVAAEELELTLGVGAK


Key:
[1] = molecular target: T1, His:BZR1; assay: EMSA; slightly weaker than probe B; EMSA: 1 ug His:BZR1, 40k cpm 32P-labeled probe; buffer, salt, pH and temperature not given (protocol of Je et al., 2010); details: protein: recombinant; tags: His (pET28a(+)); chain copies: 2; label: 32P; blunt
[2] = molecular target: T1, His:BZR1; assay: EMSA; stronger than probe A; EMSA: 1 ug His:BZR1, 40k cpm 32P-labeled probe; buffer, salt, pH and temperature not given (protocol of Je et al., 2010); details: protein: recombinant; tags: His (pET28a(+)); chain copies: 2; label: 32P; blunt

Binder | binding result [1] | binding result [2]
probe A (BRRE A, AMT1;2 promoter P4) (dsDNA) DNA 1: GTCTCACCGGGCTGCGTGCGTACGCCGATA DNA 2: TATCGGCGTACGCACGCAGCCCGGTGAGAC | binds | 
probe B (BRRE B, AMT1;2 promoter P4) (dsDNA) DNA 1: TGGTCGCATCGTCGTGCGTGAGCTGCCTATCG DNA 2: CGATAGGCAGCTCACGCACGACGATGCGACCA |  | binds
